From paper doi:10.1101/836718, “A unique conformational escape reaction of HIV-1 against an allosteric integrase inhibitor” (bioRxiv, 2019)

Key:
[1] = target: the molecule itself; assay: SEC; HPLC, TSKgel-SWXLG3000 column; INHis at 50 µM; running buffer 20 mM HEPES pH 7.4, 750 mM NaCl, 3.75 mM CHAPS; 4°C as possible; self-association (tetramer, dimer, monomer)
[2] = target: T1, His-tagged lens epithelium-derived growth factor p75 (LEDGF/p75) (human (sequence derived from 293T cells), UniProt O75475 1-530); assay: pull-down; F-IN (2 µM) and LEDGF/p75His (2 µM) 30 min at RT in 50 mM HEPES pH 7.0, 300 mM NaCl, 2 mM MgCl2, 2 mM BME, 5% glycerol, 0.2% NP-40, 20 mM imidazole; His 60 Ni resin; wash with 1 M NaCl; Coomassie staining; conditions: both partners purified
T1 construct: also called LEDGFHis; LEDGF/p75His; source: E. coli Rosetta (DE3) pLysS, purified (His-TALON column); not shown: His6, N-terminal, kept
T1 sequence (O75475 whole entry): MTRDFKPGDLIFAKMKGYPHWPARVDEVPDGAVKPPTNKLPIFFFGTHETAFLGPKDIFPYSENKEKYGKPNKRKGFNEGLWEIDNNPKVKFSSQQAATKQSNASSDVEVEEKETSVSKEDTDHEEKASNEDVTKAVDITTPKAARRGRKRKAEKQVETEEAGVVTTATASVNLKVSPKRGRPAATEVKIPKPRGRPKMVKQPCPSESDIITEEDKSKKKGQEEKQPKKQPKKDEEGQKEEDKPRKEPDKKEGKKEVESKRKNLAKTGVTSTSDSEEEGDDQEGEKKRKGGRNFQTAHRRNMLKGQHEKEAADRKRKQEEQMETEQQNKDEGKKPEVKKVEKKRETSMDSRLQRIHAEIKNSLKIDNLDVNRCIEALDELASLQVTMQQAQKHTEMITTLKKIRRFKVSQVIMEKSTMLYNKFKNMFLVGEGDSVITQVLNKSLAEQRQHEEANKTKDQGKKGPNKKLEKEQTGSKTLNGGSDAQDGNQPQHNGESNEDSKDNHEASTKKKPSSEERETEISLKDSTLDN

B1: recombinant His-tagged HIV-1 integrase, wild type (IN^WT) (enzyme)
chain: FLDGIDKAQEEHEKYHSNWRAMASDFNLPPVVAKEIVASCDKCQLKGEAMHGQVDCSPGIWQLDCTHLEGKVILVAVHVASGYIEAEVIPAETGQETAYFLLKLAGRWPVKTVHTDNGSNFTSTTVKAACWWAGIKQEFGIPYNPQSQGVIESMNKELKKIIGQVRDQAEHLKTAVQMAVFIHNFKRKGGIGGYSAGERIVDIIATDIQTKELQKQITKIQNFRVYYRDSRDPVWKGPAKLLWKGEGAVVIQDNSDIKVVPRRKAKIIRDYGKQMAGDDCVASRQDED
notes: pET30a IN-6xHis; also called INHis; IN-6xHis; source: E. coli Rosetta (DE3) pLysS, purified (His-TALON column); not shown: His6, C-terminal, kept
Q: B1 was tested. Which “stoichiometry N” value [1] did it give?
A: 2

B2: Flag-tagged HIV-1 integrase, wild type (F-IN^WT) (enzyme)
chain: B1 chain
notes: pET30a Flag-IN; also called Flag-IN; source: E. coli Rosetta (DE3) pLysS, purified (by previous reports, Kessl et al., 2012); not shown: FLAG, N-terminal, kept
Q: Does B2 bind [2]?
A: binds
